Reference: publication doi:10.1101/2021.04.16.440242

Target: T1, wild-type CHIP (carboxyl terminus of Hsc70-interacting protein) (human), Q9UNE7
T1 chain: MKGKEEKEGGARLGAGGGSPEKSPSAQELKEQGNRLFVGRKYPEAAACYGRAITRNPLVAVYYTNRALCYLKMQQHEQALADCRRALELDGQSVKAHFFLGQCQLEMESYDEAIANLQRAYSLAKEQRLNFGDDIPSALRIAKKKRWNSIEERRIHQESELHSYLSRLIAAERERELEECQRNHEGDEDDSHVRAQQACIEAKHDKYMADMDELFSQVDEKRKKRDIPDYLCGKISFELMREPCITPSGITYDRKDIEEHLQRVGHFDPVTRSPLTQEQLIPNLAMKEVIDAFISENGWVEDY
Test: SEC
Conditions: remark: other sources report otherwise

- stoichiometry N: 2
B1: wild-type CHIP (carboxyl terminus of Hsc70-interacting protein), Q9UNE7 1-303 (enzyme)
chain: MKGKEEKEGGARLGAGGGSPEKSPSAQELKEQGNRLFVGRKYPEAAACYGRAITRNPLVAVYYTNRALCYLKMQQHEQALADCRRALELDGQSVKAHFFLGQCQLEMESYDEAIANLQRAYSLAKEQRLNFGDDIPSALRIAKKKRWNSIEERRIHQESELHSYLSRLIAAERERELEECQRNHEGDEDDSHVRAQQACIEAKHDKYMADMDELFSQVDEKRKKRDIPDYLCGKISFELMREPCITPSGITYDRKDIEEHLQRVGHFDPVTRSPLTQEQLIPNLAMKEVIDAFISENGWVEDY
